Patent US20190002564A1 (Hoffmann-La Roche, published 2019)

Experiments:
[1] = target: T1, human CEA (Carcinoembryonic antigen, CEACAM5) on tumor cells (human, UniProt P06731 35-685, The C-terminal Ala685 carries the GPI anchor. The protein is heavily N-glycosylated.); test: cell-based or functional assay
T1 sequence: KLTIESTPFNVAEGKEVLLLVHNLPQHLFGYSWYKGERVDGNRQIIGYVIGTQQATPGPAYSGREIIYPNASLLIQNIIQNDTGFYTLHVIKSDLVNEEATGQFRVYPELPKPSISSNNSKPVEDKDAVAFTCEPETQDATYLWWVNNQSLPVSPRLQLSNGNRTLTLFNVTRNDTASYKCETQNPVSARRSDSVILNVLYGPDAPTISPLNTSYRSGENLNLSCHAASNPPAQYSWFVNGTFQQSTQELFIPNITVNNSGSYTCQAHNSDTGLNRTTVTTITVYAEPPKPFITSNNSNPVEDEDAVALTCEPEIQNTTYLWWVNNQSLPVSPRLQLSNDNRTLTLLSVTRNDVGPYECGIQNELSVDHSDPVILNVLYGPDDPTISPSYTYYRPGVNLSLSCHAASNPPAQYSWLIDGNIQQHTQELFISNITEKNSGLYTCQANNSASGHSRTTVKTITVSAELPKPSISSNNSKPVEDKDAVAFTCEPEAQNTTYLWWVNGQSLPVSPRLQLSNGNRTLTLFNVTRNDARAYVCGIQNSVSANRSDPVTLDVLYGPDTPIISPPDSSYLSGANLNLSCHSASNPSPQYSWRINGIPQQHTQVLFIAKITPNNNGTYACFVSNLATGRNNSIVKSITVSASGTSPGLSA

[2] = target: T1, human CEA (Carcinoembryonic antigen, …); test: cell-based or functional assay; remark: listed apart in the source
[3] = target: T2, human CD3 on Jurkat cells (Homo sapiens, UniProt P07766); test: flow cytometry on Jurkat cells (human CD3), FITC-conjugated anti-human IgG F(ab')2 secondary antibody, median fluorescence intensity
T2 construct: native, on the surface of the Jurkat human T cell line; also called CD3+ cells (Jurkat)
T2 sequence (P07766 23-207): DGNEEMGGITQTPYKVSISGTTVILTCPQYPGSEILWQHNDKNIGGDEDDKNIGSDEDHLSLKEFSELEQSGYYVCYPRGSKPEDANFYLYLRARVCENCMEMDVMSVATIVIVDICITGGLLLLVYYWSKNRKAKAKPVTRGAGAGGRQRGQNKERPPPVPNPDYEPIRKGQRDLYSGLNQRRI
Experimental: (§1) An untargeted TCB (SEQ ID NOs: 59, 60, 61 and 62; see example 24) was used as control. Briefly, cells were harvested, counted, checked for viability and resuspended at 2×10⁶ cells/ml in FACS buffer (100 μl PBS 0.1% BSA).

[4] = target: T3, human MCSP (Melanoma-associated Chondroitin Sulfate Proteoglycan) on tumor cells (human, UniProt Q6UVK1 30-2322); test: flow cytometry on A375 cells (MCSP+), PE-conjugated anti-human IgG Fcγ secondary antibody, median fluorescence intensity
T3 construct: whole, on cells; Cell surface antigen on human tumor cell lines A375 (high), MV-3 (medium), HCT-116 (low); also called CSPG4
T3 sequence (Q6UVK1 30-2322): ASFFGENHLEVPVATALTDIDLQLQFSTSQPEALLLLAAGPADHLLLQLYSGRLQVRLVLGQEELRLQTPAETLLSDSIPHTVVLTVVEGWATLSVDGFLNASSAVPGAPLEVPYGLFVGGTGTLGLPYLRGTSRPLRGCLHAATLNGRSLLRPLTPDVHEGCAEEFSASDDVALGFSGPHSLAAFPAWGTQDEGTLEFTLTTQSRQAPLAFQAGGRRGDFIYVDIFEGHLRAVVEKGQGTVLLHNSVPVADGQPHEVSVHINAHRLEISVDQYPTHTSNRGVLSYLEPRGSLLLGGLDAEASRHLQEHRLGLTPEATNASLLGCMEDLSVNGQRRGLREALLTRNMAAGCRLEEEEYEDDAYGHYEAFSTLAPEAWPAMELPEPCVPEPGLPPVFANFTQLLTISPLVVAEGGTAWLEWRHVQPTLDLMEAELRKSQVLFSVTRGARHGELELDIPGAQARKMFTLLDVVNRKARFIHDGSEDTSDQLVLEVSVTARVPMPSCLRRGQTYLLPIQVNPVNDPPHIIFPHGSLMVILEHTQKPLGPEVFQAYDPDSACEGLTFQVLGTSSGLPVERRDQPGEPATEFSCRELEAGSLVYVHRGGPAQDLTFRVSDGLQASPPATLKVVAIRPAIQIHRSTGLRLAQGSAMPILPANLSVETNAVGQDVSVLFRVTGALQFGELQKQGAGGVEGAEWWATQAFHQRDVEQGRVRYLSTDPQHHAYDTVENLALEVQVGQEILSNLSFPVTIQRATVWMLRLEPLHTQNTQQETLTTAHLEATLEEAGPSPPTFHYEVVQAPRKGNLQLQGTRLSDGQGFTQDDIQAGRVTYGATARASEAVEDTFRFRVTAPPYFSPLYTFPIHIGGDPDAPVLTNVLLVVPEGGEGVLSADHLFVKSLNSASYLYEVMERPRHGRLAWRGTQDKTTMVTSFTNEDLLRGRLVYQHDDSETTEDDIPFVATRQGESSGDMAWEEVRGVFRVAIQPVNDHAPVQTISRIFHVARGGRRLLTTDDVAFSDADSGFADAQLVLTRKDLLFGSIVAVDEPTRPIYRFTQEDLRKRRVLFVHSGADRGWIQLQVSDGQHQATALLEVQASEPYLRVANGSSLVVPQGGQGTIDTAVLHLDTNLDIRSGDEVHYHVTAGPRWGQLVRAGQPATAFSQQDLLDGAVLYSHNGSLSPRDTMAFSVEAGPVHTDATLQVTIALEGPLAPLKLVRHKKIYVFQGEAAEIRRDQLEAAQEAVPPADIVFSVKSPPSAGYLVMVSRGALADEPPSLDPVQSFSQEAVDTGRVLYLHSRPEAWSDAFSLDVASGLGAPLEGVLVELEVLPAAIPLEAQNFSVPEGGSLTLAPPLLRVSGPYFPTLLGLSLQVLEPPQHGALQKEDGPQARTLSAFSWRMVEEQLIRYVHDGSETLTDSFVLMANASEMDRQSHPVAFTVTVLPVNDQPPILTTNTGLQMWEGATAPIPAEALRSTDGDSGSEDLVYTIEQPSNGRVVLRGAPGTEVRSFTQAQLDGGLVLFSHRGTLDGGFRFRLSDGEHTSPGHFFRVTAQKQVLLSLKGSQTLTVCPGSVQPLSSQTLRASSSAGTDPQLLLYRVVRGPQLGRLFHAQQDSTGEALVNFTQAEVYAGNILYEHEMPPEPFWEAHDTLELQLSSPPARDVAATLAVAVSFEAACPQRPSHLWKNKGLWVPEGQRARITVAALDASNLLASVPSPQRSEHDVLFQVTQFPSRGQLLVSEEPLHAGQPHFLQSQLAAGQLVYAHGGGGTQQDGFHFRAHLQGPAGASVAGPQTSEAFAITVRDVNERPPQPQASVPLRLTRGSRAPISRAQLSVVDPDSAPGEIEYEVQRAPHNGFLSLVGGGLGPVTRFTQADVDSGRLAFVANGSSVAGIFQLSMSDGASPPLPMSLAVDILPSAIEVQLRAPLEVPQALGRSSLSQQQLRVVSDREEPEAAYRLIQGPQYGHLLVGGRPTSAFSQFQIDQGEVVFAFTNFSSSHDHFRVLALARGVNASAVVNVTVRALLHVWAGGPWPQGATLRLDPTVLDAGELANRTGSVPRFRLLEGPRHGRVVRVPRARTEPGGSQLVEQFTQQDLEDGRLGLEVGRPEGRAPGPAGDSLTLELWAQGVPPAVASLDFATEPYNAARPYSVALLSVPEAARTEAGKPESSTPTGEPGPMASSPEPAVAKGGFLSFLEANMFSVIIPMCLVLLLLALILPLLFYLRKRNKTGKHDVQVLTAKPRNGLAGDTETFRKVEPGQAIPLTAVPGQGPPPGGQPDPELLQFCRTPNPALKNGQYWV
Experimental: (§2) Briefly, cells were harvested, counted, checked for viability and resuspended at 2×10⁶ cells/ml in FACS buffer (100 μl PBS 0.1% BSA).

[5] = target: T2, human CD3 on Jurkat cells; test: flow cytometry on Jurkat cells (CD3+), PE-conjugated anti-human IgG Fcγ secondary antibody, median fluorescence intensity
Experimental: as §2

[6] = target: T1, human CEA (Carcinoembryonic antigen, …); test: flow cytometry on A549-huCEA cells, FITC-conjugated anti-human IgG F(ab')2 secondary antibody, median fluorescence intensity
Experimental: as §1

B1: CEA TCB (2+1 Crossfab-IgG P329G LALA inverted) (bispecific antibody)
chain 1: DIQMTQSPSSLSASVGDRVTITCKASAAVGTYVAWYQQKPGKAPKLLIYSASYRKRGVPSRFSGSGSGTDFTLTISSLQPEDFATYYCHQYYTYPLFTFGQGTKLEIKRTVAAPSVFIFPPSDEQLKSGTASVVCLLNNFYPREAKVQWKVDNALQSGNSQESVTEQDSKDSTYSLSSTLTLSKADYEKHKVYACEVTHQGLSSPVTKSFNRGEC
chain 2: QAVVTQEPSLTVSPGGTVTLTCGSSTGAVTTSNYANWVQEKPGQAFRGLIGGTNKRAPGTPARFSGSLLGGKAALTLSGAQPEDEAEYYCALWYSNLWVFGGGTKLTVLSSASTKGPSVFPLAPSSKSTSGGTAALGCLVKDYFPEPVTVSWNSGALTSGVHTFPAVLQSSGLYSLSSVVTVPSSSLGTQTYICNVNHKPSNTKVDKKVEPKSC
chain 3: not shown
chain 4: QVQLVQSGAEVKKPGASVKVSCKASGYTFTEFGMNWVRQAPGQGLEWMGWINTKTGEATYVEEFKGRVTFTTDTSTSTAYMELRSLRSDDTAVYYCARWDFAYYVEAMDYWGQGTTVTVSSASTKGPSVFPLAPSSKSTSGGTAALGCLVKDYFPEPVTVSWNSGALTSGVHTFPAVLQSSGLYSLSSVVTVPSSSLGTQTYICNVNHKPSNTKVDKKVEPKSCDKTHTCPPCPAPEAAGGPSVFLFPPKPKDTLMISRTPEVTCVVVDVSHEDPEVKFNWYVDGVEVHNAKTKPREEQYNSTYRVVSVLTVLHQDWLNGKEYKCKVSNKALGAPIEKTISKAKGQPREPQVCTLPPSRDELTKNQVSLSCAVKGFYPSDIAVEWESNGQPENNYKTTPPVLDSDGSFFLVSKLTVDKSRWQQGNVFSCSVMHEALHNHYTQKSLSLSPGK
notes: Two anti-CEA Fabs CH1A1A 98/99 2F1, one anti-CD3 crossfab (humanized CH2527), Fc knob-into-hole with P329G LALA; the conventional light chain occurs twice (vector ratio 1:2:1:1); also called CEA TCB antibody
[1]
  EC50 of killing of A549-hCEA cells at 40 h, cynomolgus PBMCs as effector cells: 0.102 nM
  EC50 of killing of A549-hCEA cells at 40 h, human PBMCs as effector cells: 0.306 nM
[2]
  EC50 [pM] 48 h for T-cell mediated killing of ASPC1 cells (LDH release, human PBMCs, E:T 10:1): 846 pM
  EC50 [pM] 48 h for T-cell mediated killing of BxPC-3 cells (LDH release, human PBMCs, E:T 10:1): 3780 pM
  EC50 [pM] 48 h for T-cell mediated killing of HPAFII cells (LDH release, human PBMCs, E:T 10:1): 667 pM
[3]
  binding result: binds

B2: untargeted TCB (bispecific antibody)
polypeptide chain; the text does not say which chain this SEQ ID NO is 1: not shown
polypeptide chain; the text does not say which chain this SEQ ID NO is 2: QAVVTQEPSLTVSPGGTVTLTCGSSTGAVTTSNYANWVQEKPGQAFRGLIGGTNKRAPGTPARFSGSLLGGKAALTLSGAQPEDEAEYYCALWYSNLWVFGGGTKLTVLSSASTKGPSVFPLAPSSKSTSGGTAALGCLVKDYFPEPVTVSWNSGALTSGVHTFPAVLQSSGLYSLSSVVTVPSSSLGTQTYICNVNHKPSNTKVDKKVEPKSC
polypeptide chain; the text does not say which chain this SEQ ID NO is 3: not shown
polypeptide chain; the text does not say which chain this SEQ ID NO is 4: not shown
notes: Control bispecific antibody that engages CD3 through humanized CH2527 but no second antigen; also called DP47GS TCB; DP47 GS TCB
[4]
  binding result: no binding (tested: about log 5.3 [pM] (about 200 nM))
[5]
  binding result: binds
[6]
  binding result: no binding (tested: log 6 [pM] (1000 nM))
